Tested on: T1, TMR-Val-Pro-Arg-Gly-Lys-TMR
T1 sequence: XPRGX

Substance trypsin has an average fluorescence ratio w/ trypsin : w/o trypsin, excitation 360 nm, emission 570-585 nm of 26 fold, an average fluorescence ratio w/ trypsin : w/o trypsin, excitation 522 nm, emission 570-585 nm of 28 fold and an average fluorescence ratio w/ trypsin : w/o trypsin, excitation 530 nm, emission 570-585 nm of 27 fold. For the same substance, the average fluorescence ratio w/ trypsin : w/o trypsin, excitation 553 nm, emission 570-585 nm was 25 fold, the fluorescence ratio w/ trypsin : w/o trypsin, excitation 360 nm, emission 570 nm was 27 fold and the fluorescence ratio w/ trypsin : w/o trypsin, excitation 360 nm, emission 571 nm was 25 fold. For the same substance, the fluorescence ratio w/ trypsin : w/o trypsin, excitation 360 nm, emission 572 nm was 25 fold, the fluorescence ratio w/ trypsin : w/o trypsin, excitation 360 nm, emission 573 nm was 25 fold and the fluorescence ratio w/ trypsin : w/o trypsin, excitation 360 nm, emission 574 nm was 27 fold. The fluorescence ratio w/ trypsin : w/o trypsin, excitation 360 nm, emission 575 nm was 24 fold, the fluorescence ratio w/ trypsin : w/o trypsin, excitation 360 nm, emission 576 nm was 24 fold and the fluorescence ratio w/ trypsin : w/o trypsin, excitation 360 nm, emission 577 nm was 26 fold. The fluorescence ratio w/ trypsin : w/o trypsin, excitation 360 nm, emission 578 nm was 26 fold, the fluorescence ratio w/ trypsin : w/o trypsin, excitation 360 nm, emission 579 nm was 25 fold and the fluorescence ratio w/ trypsin : w/o trypsin, excitation 360 nm, emission 580 nm was 27 fold. For the same substance, the fluorescence ratio w/ trypsin : w/o trypsin, excitation 360 nm, emission 581 nm was 27 fold, the fluorescence ratio w/ trypsin : w/o trypsin, excitation 360 nm, emission 582 nm was 26 fold and the fluorescence ratio w/ trypsin : w/o trypsin, excitation 360 nm, emission 583 nm was 28 fold. It also gave a fluorescence ratio w/ trypsin : w/o trypsin, excitation 360 nm, emission 584 nm of 24 fold, a fluorescence ratio w/ trypsin : w/o trypsin, excitation 360 nm, emission 585 nm of 27 fold and a fluorescence ratio w/ trypsin : w/o trypsin, excitation 522 nm, emission 570 nm of 29 fold. It also gave a fluorescence ratio w/ trypsin : w/o trypsin, excitation 522 nm, emission 571 nm of 27 fold, a fluorescence ratio w/ trypsin : w/o trypsin, excitation 522 nm, emission 572 nm of 29 fold and a fluorescence ratio w/ trypsin : w/o trypsin, excitation 522 nm, emission 573 nm of 29 fold. For the same substance, the fluorescence ratio w/ trypsin : w/o trypsin, excitation 522 nm, emission 574 nm was 27 fold, the fluorescence ratio w/ trypsin : w/o trypsin, excitation 522 nm, emission 575 nm was 27 fold and the fluorescence ratio w/ trypsin : w/o trypsin, excitation 522 nm, emission 576 nm was 29 fold. For the same substance, the fluorescence ratio w/ trypsin : w/o trypsin, excitation 522 nm, emission 577 nm was 27 fold, the fluorescence ratio w/ trypsin : w/o trypsin, excitation 522 nm, emission 578 nm was 28 fold and the fluorescence ratio w/ trypsin : w/o trypsin, excitation 522 nm, emission 579 nm was 27 fold. The fluorescence ratio w/ trypsin : w/o trypsin, excitation 522 nm, emission 580 nm was 29 fold, the fluorescence ratio w/ trypsin : w/o trypsin, excitation 522 nm, emission 581 nm was 27 fold and the fluorescence ratio w/ trypsin : w/o trypsin, excitation 522 nm, emission 582 nm was 29 fold. The fluorescence ratio w/ trypsin : w/o trypsin, excitation 522 nm, emission 583 nm was 28 fold, the fluorescence ratio w/ trypsin : w/o trypsin, excitation 522 nm, emission 584 nm was 27 fold and the fluorescence ratio w/ trypsin : w/o trypsin, excitation 522 nm, emission 585 nm was 28 fold. It also gave a fluorescence ratio w/ trypsin : w/o trypsin, excitation 530 nm, emission 570 nm of 28 fold, a fluorescence ratio w/ trypsin : w/o trypsin, excitation 530 nm, emission 571 nm of 28 fold and a fluorescence ratio w/ trypsin : w/o trypsin, excitation 530 nm, emission 572 nm of 27 fold. For the same substance, the fluorescence ratio w/ trypsin : w/o trypsin, excitation 530 nm, emission 573 nm was 28 fold, the fluorescence ratio w/ trypsin : w/o trypsin, excitation 530 nm, emission 574 nm was 27 fold and the fluorescence ratio w/ trypsin : w/o trypsin, excitation 530 nm, emission 575 nm was 28 fold. The fluorescence ratio w/ trypsin : w/o trypsin, excitation 530 nm, emission 576 nm was 27 fold, the fluorescence ratio w/ trypsin : w/o trypsin, excitation 530 nm, emission 577 nm was 28 fold and the fluorescence ratio w/ trypsin : w/o trypsin, excitation 530 nm, emission 578 nm was 27 fold. The fluorescence ratio w/ trypsin : w/o trypsin, excitation 530 nm, emission 579 nm was 26 fold, the fluorescence ratio w/ trypsin : w/o trypsin, excitation 530 nm, emission 580 nm was 27 fold and the fluorescence ratio w/ trypsin : w/o trypsin, excitation 530 nm, emission 581 nm was 27 fold. It also gave a fluorescence ratio w/ trypsin : w/o trypsin, excitation 530 nm, emission 582 nm of 27 fold, a fluorescence ratio w/ trypsin : w/o trypsin, excitation 530 nm, emission 583 nm of 27 fold and a fluorescence ratio w/ trypsin : w/o trypsin, excitation 530 nm, emission 584 nm of 27 fold. The fluorescence ratio w/ trypsin : w/o trypsin, excitation 530 nm, emission 585 nm was 27 fold, the fluorescence ratio w/ trypsin : w/o trypsin, excitation 553 nm, emission 570 nm was 25 fold and the fluorescence ratio w/ trypsin : w/o trypsin, excitation 553 nm, emission 571 nm was 25 fold. The fluorescence ratio w/ trypsin : w/o trypsin, excitation 553 nm, emission 572 nm was 25 fold, the fluorescence ratio w/ trypsin : w/o trypsin, excitation 553 nm, emission 573 nm was 25 fold and the fluorescence ratio w/ trypsin : w/o trypsin, excitation 553 nm, emission 574 nm was 25 fold. The fluorescence ratio w/ trypsin : w/o trypsin, excitation 553 nm, emission 575 nm was 24 fold, the fluorescence ratio w/ trypsin : w/o trypsin, excitation 553 nm, emission 576 nm was 25 fold and the fluorescence ratio w/ trypsin : w/o trypsin, excitation 553 nm, emission 577 nm was 25 fold. It also gave a fluorescence ratio w/ trypsin : w/o trypsin, excitation 553 nm, emission 578 nm of 25 fold, a fluorescence ratio w/ trypsin : w/o trypsin, excitation 553 nm, emission 579 nm of 24 fold and a fluorescence ratio w/ trypsin : w/o trypsin, excitation 553 nm, emission 580 nm of 25 fold. For the same substance, the fluorescence ratio w/ trypsin : w/o trypsin, excitation 553 nm, emission 581 nm was 24 fold, the fluorescence ratio w/ trypsin : w/o trypsin, excitation 553 nm, emission 582 nm was 25 fold and the fluorescence ratio w/ trypsin : w/o trypsin, excitation 553 nm, emission 583 nm was 24 fold. For the same substance, the fluorescence ratio w/ trypsin : w/o trypsin, excitation 553 nm, emission 584 nm was 25 fold and the fluorescence ratio w/ trypsin : w/o trypsin, excitation 553 nm, emission 585 nm was 25 fold.
“trypsin-like enzyme of Vibrio parahaemolyticus” was tested, and the “increase in fluorescence on cleavage of the substrate” value was “Cleavage by the trypsin-like enzyme produced an increase in fluorescence”.

— patent US6787329
